The source of these data is patent US12448442B2, “Treatment of T cell lymphoma” (INNATE PHARMA, priority 2019, dated 2025).

Assay [1] has as its system KIR3DL2-expressing Sézary Syndrome cell line (Hut 78). The experiment in a line: In vitro cellular cytotoxicity (ADCC) assay with allogeneic NK cells and Hut 78 cells, with increasing concentrations of anti-KIR3DL2 antibody. It is filed as cell-based. The following applies: chemotherapeutic agent added to lacutamab, allogeneic NK cells, FIG. 1. Here is the method: Consequently, we sought to evaluate whether chemotherapeutic agents affect the NK cell-mediated ADCC activity of humanized 2B12 antibody lacutamab having human IgG1 isotype and the VH and VL amino acid sequences shown in SEQ ID NOS: 49 and 44, respectively. Chemotherapeutic agents were added, alone or in combination, to an in vitro cellular cytotoxicity (ADCC) assay with allogeneic NK cells and KIR3DL2-expressing Sézary Syndrome cell line (Hut 78), in presence of increasing concentrations of the anti-KIR3DL2 antibody.

Another assay has as its system RAJI-KIR3DL2. It is filed as in vivo. The note with it: twice a week; antibody 0.3 μg per injection, gemcitabine 50 mg/kg, oxaliplatin 5 mg/kg; FIG. 3.
The next assay deals with RAJI-KIR3DL2 cells. The experiment in a line: KIR3DL2 surface expression by flow cytometry on RAJI-KIR3DL2 cells. It is filed as cell-based. The following applies: RAJI-KIR3DL2, same experimental conditions. Here is the method:
(§1) RAJI-KIR3DL2 (48 hour incubation) (FIG. 2, left hand panel) or Hut 78 ([…]; 24 hour incubation (FIG. 2, right hand panel) were incubated with ascending doses of gemcitabine and oxaliplatin. Median intensity of fluorescence of KIR3DL2 on tumor cell line surface was analyzed by flow cytometry.
(§2) Briefly, Hut78 cells (Sezary Syndrome cell line) or RAJI-KIR3DL2 cells (RAJI B-NHL cell line transfected with human KIR3DL2 were incubated with ascending doses of gemcitabine and oxaliplatin. Median intensity of fluorescence of KIR3DL2 on tumor cell line surface was analyzed by flow cytometry.

For a further assay, the system named is Hut78 cells. Nature of the assay: KIR3DL2 surface expression by flow cytometry on Hut78 cells. It is filed as cell-based. The following applies: Hut78 / TCL cells. As for the experimental part:
as §1, §2

Assay [2] deals with T1, KIR3DL2 (Homo sapiens, UniProt P43630). The arrangement: host or cells: tumor cells (not further named). The following applies: into cells / tumor cells; cited from earlier work.
For a further assay, the system named is refractory SS patients. The experiment in a line: Clinical trials of single agent IPH4102 in refractory Sézary Syndrome patients. The note with it: repeated administrations of single agent. It is filed as in vivo, human. The text has this:
Antibodies that specifically bind to KIR3DL2 are well known in the art. Innate Pharma for example have described numerous anti-KIR3DL2 antibodies directed to a range of different epitopes on KIR3DL2, e.g., antibodies 15C11, 19H12, 22B2, 18B10, 12B11, 13H1, 10F6, 2B12, 18C6, 9E10, 10G5, 13H1, 5H1, 1E2, 1C3 and 20E9 described in PCT publication nos. WO2014/044681 and WO2014/044686. […] These encouraging results, moreover with few side effects and the ability to deplete malignant KIR3DL2-expressing cells without causing the depletion of healthy KIR3DL2-expressing NK and T cells provides an important advance in treating TCLs.

Assay [3] has as its target T1, KIR3DL2. The note with it: cited from earlier work.
For a further assay, the target named is human KIR3DL1 (Homo sapiens, UniProt P43629). The note with it: cited from earlier work.
Sequence of human KIR3DL1 (P43629 22-444): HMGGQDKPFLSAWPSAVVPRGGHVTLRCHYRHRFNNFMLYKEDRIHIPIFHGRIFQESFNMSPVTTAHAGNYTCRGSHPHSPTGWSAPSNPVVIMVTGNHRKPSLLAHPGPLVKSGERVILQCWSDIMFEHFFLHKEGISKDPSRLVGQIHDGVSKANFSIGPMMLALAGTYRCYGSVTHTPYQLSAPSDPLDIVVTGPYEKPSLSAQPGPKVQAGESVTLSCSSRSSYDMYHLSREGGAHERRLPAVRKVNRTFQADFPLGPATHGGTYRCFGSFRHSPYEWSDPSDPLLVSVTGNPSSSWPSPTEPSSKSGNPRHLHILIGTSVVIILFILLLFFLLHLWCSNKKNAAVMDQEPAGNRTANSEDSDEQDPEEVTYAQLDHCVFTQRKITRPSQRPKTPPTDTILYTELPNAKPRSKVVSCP

T1 sequence (P43630 22-455): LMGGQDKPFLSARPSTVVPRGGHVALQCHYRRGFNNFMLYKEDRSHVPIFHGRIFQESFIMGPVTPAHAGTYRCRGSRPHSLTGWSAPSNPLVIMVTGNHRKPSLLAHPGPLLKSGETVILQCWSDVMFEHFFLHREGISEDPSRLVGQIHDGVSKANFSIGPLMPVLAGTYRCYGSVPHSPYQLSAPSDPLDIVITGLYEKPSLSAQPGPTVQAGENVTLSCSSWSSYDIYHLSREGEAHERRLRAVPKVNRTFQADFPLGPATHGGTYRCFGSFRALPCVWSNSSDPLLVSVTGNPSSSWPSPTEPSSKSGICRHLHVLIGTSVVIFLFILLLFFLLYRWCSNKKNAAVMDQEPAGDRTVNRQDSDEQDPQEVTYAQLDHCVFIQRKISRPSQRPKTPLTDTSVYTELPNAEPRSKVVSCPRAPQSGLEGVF

Regarding `O=C1[O][Pt]2([NH][C@@H]3CCCC[C@H]3[NH]2)[O]C1=O` [oxaliplatin], the “effect on anti-KIR3DL2 antibody-induced ADCC / anti-tumor activity against HUT78” value in assay [1] is reported as “enhanced”. For the same molecule, the “anti-tumor activity in vivo” value with RAJI-KIR3DL2 is recorded as “very limited, if any, anti-tumor effect”.

With `O=P1(N(CCCl)CCCl)NCCCO1` (stereo not shown) [cyclophosphamide], the “effect on KIR3DL2 expression” value with RAJI-KIR3DL2 cells and with Hut78 cells was “did not increase KIR3DL2 expression” in each case.

Turning to `Nc1ccn([C@@H]2O[C@H](CO)[C@@H](O)C2(F)F)c(=O)n1` [gemcitabine], in assay [1], the “effect on anti-KIR3DL2 antibody-induced ADCC / anti-tumor activity against HUT78” value is reported as “enhanced”.

B1: 2B12: anti-KIR3DL2 antibody, VH SEQ ID NO: 32, VL SEQ ID NO: 33 (antibody, listed as Mus musculus, V domains shown)
VH: QIQLVQSGPELKKPGETVRISCKASGYTFTTAGMQWVQKTPGKGLKWIGWINSHSGVPKYAEDFKGRFAFSLETSASTAYLQISTLKNEDTATYFCARGGDEGVMDYWGQGTSVTVS
VL: DIVMTQSHKFMSTSLGDRVSFTCKASQDVSTAVAWYQQKPGQSPKLLIYWTSTRHTGVPDRFTGSGSGTDYTLTISSVQAEDLALYYCQQHYSTPWTFGGGTKLEIK
Turning to B1, the “internalization via KIR3DL2” value with KIR3DL2 [2] is reported as “do not induce any KIR3DL2 internalization”.

B2: 12B11: anti-KIR3DL2 antibody, VH SEQ ID NO: 16, VL SEQ ID NO: 17 (antibody, listed as Mus musculus, V domains shown)
VH: QLVQSGPELKNPGETVKISCKASGYTFTNYGMNWVKQAPGKGLKWMGWINTYTGEPTYADDFKGRFAFSLETSASTAYLQINNLKNEDTATYFCAHGPWLAYWGQGTLVTVS
VL: DIKMTQSPSSMYASLGERVTITCKASQDINVYLSWFQQKPGKSPKTLIYRAIRLVDGVPSRFSGSGSGQDYSLTISSLDYEDMGIYYCLQYDELPYTFGGGTKLEIE
Take B2: the “internalization via KIR3DL2” value with KIR3DL2 [2] is listed as “capable of being internalized”.

B3: IPH4102: humanized 2B12 anti-KIR3DL2 antibody, human IgG1, VH SEQ ID NO: 49 and VL SEQ ID NO: 44 (antibody, V domains shown)
VH: QIQLVQSGSELKKPGASVKVSCKASGYTFTTAGMQWVRQAPGQGLEWIGWINSHSGVPKYAEDFKGRFVFSLDTSVSTAYLQISSLKAEDTAVYFCARGGDEGVMDYWGQGTTVTVSS
VL: DIQMTQSPSFLSASVGDRVTITCKASQDVSTAVAWYQQKPGQPPKLLIYWTSTRHTGVPDRFSGSGSGTDYTLTISSLQAEDVAVYYCQQHYSTPWTFGGGTKVEIK
Turning to B3, in the assay on refractory SS patients, the “median duration of response (DoR)” value is given as 13.8 months, the “median progression-free survival (PFS)” value was 11.7 months and the “overall response rate (ORR)” value was 42.9%.

B4: 19H12: anti-KIR3DL2 antibody, VH SEQ ID NO: 5, VL SEQ ID NO: 6 (antibody, V domains shown)
VH: QIQLVQSGPELKKPGETVKISCKASGYTFTNFGMNWVKQAPGKGLKWMGWINTYTGEPTYADDFKGRFAFSLETSASTAYLQINNLKNEDMATYFCARNGNFGYYFDYWGQGTTLTVSS
VL: DVLMTQTPLSLPVSLGDQASFSCRSSQNIVHSNGNTYLEWYLQKPGQSPSLLIYKVSNRFSGVPDRFSGSGSGTDFTLKITRVEAEDLGVYYCFQGSHVPFTFGSGTKLEIK
modifications: mus musculus
Consider B4, for which, in the assay with KIR3DL2 [2], the “internalization via KIR3DL2” value is listed as “capable of being internalized”.

B5: AZ158: antibody binding human KIR3DL2 and KIR3DL1, VH SEQ ID NO: 3, VL SEQ ID NO: 4 (antibody, V domains shown)
VH: QVQLKESGPGLVAPSQSLSITCTVSGFSLTSFGVHWVRQPPGKGLEWLGVIWAGGSTNYNSALMSRLSISKDNSKSQVFLKMNSLQNDDTAMYYCARGNSNHYVSSFYYFDYWGQGTTLTVSS
VL: DIQMTQSPSSLSASLGGKVTITCKASQDINKYIAWYQHKPGKGPRLLIHYTSTLQPGIPSRFSGSGSGRDYSFSISNLEPEDITTYYCLQYDNLWTFGGGTKLEIK
modifications: mus musculus
Consider B5, for which the “binding to KIR3DL2” value with KIR3DL2 [3] is “binds”. Further, the “binding to KIR3DL1” value with human KIR3DL1 is “binds”.
